Columns and labels:
Assay type in all cases: biochemical
[1] = substrate: NCCCc1ccccc1; assay: Kinetic parameters, human SSAO/VAP-1; conditions: other: Human SSAO/VAP-1
Protocol: (§1) The continuous spectrophotometric detection of SSAO-dependent H2O2 production based on a peroxidase-coupled reaction was performed as previously described by Abella et al. (2004, Diabetologia 47: 429-438) and following the procedure described by Holt et al., (1997, Anal. Biochem. 244: 384-392).
(§2) Compounds listed in Table 1 were prepared according to the methods described above, purity was determined by HPLC at 220 nm, molecular weight calculated by mass spectrometer. Human and mouse SSAO activity was determined by detecting the production of hydrogene peroxide in the presence of the different compounds present at 1 mM for human and 100 μM for mice activity measurements. Compounds in Table 2″ were similarly assayed. Values are means of percentages relative to benzylamine-related hydrogen production. Kinetic Parameters for select compounds are set forth in Table 3 (Mouse SSAO) and Table 4 (Human SSAO).

[2] = substrate: NCCc1ccccc1; assay: Kinetic parameters, human SSAO/VAP-1; conditions: other: Human SSAO/VAP-1
Protocol: as §1, §2

[3] = substrate: NCCc1ccc(F)cc1; assay: Kinetic parameters, human SSAO/VAP-1; conditions: other: Human SSAO/VAP-1
Protocol: as §1, §2

[4] = substrate: NCc1ccccc1; assay: Kinetic parameters, human SSAO/VAP-1; conditions: other: Human SSAO/VAP-1
Protocol: as §1, §2

[5] = substrate: NCc1ccc(F)cc1; assay: Kinetic parameters, human SSAO/VAP-1; conditions: other: Human SSAO/VAP-1
Protocol: as §1, §2

[6] = substrate: NCCCCc1ccccc1; assay: Kinetic parameters, human SSAO/VAP-1; conditions: other: Human SSAO/VAP-1
Protocol: as §1, §2

[7] = substrate: NCCCc1ccccc1; assay: Kinetic parameters, mouse SSAO/VAP-1; conditions: other: Mouse SSAO/VAP-1
Protocol: as §1, §2

[8] = substrate: NCCc1ccccc1; assay: Kinetic parameters, mouse SSAO/VAP-1; conditions: other: Mouse SSAO/VAP-1
Protocol: as §1, §2

[9] = substrate: NCCc1ccc(F)cc1; assay: Kinetic parameters, mouse SSAO/VAP-1; conditions: other: Mouse SSAO/VAP-1
Protocol: as §1, §2

[10] = substrate: NCc1ccccc1; assay: Kinetic parameters, mouse SSAO/VAP-1; conditions: other: Mouse SSAO/VAP-1
Protocol: as §1, §2

[11] = substrate: NCc1ccc(F)cc1; assay: Kinetic parameters, mouse SSAO/VAP-1; conditions: other: Mouse SSAO/VAP-1
Protocol: as §1, §2

[12] = substrate: NCCCCc1ccccc1; assay: Kinetic parameters, mouse SSAO/VAP-1; conditions: other: Mouse SSAO/VAP-1
Protocol: as §1, §2

B1: Human SSAO/VAP-1 (Homo sapiens) (protein)
chain: MNQKTILVLLILAVITIFALVCVLLVGRGGDGGEPSQLPHCPSVSPSAQPWTHPGQSQLFADLSREELTAVMRFLTQRLGPGLVDAAQARPSDNCVFSVELQLPPKAAALAHLDRGSPPPAREALAIVFFGRQPQPNVSELVVGPLPHPSYMRDVTVERHGGPLPYHRRPVLFQEYLDIDQMIFNRELPQASGLLHHCCFYKHRGRNLVTMTTAPRGLQSGDRATWFGLYYNISGAGFFLHHVGLELLVNHKALDPARWTIQKVFYQGRYYDSLAQLEAQFEAGLVNVVLIPDNGTGGSWSLKSPVPPGPAPPLQFYPQGPRFSVQGSRVASSLWTFSFGLGAFSGPRIFDVRFQGERLVYEISLQEALAIYGGNSPAAMTTRYVDGGFGMGKYTTPLTRGVDCPYLATYVDWHFLLESQAPKTIRDAFCVFEQNQGLPLRRHHSDLYSHYFGGLAETVLVVRSMSTLLNYDYVWDTVFHPSGAIEIRFYATGYISSAFLFGATGKYGNQVSEHTLGTVHTHSAHFKVDLDVAGLENWVWAEDMVFVPMAVPWSPEHQLQRLQVTRKLLEMEEQAAFLVGSATPRYLYLASNHSNKWGHPRGYRIQMLSFAGEPLPQNSSMARGFSWERYQLAVTQRKEEEPSSSSVFNQNDPWAPTVDFSDFINNETIAGKDLVAWVTAGFLHIPHAEDIPNTVTVGNGVGFFLRPYNFFDEDPSFYSADSIYFRGDQDAGACEVNPLACLPQAAACAPDLPAFSHGGFSHN
With B1 as the protein, how does the Km [1] read?
The Km was 1339 ± 140 µM.

What about the Vmax [1] of the same protein?
The Vmax was 0.156 µmol/min/mg.

What about the kcat [1] of the same protein?
Its kcat is 0.22 s⁻¹.

And the kcat/Km [1]?
Its kcat/Km is 168 M⁻¹ s⁻¹.

And the Km [2]?
The Km was 2918 ± 1910 µM.

And the Vmax [2]?
Its Vmax is 0.05 µmol/min/mg.

And the kcat [2]?
The kcat was 0.07 s⁻¹.

What about the kcat/Km [2] of the same protein?
The kcat/Km was 25 M⁻¹ s⁻¹.

And the Km [3]?
Its Km is 2805 ± 613 µM.

What about the Vmax [3] of the same protein?
The Vmax was 0.263 µmol/min/mg.

And the kcat [3]?
The kcat was 0.38 s⁻¹.

What about the kcat/Km [3] of the same protein?
The kcat/Km was 135 M⁻¹ s⁻¹.

And the Km [4]?
Its Km is 277 ± 33 µM.

And the Vmax [4]?
Its Vmax is 0.294 µmol/min/mg.

What about the kcat [4] of the same protein?
The kcat was 0.42 s⁻¹.

What about the kcat/Km [4] of the same protein?
Its kcat/Km is 1530 M⁻¹ s⁻¹.

What about the Km [5] of the same protein?
Its Km is 647 ± 32 µM.

What about the Vmax [5] of the same protein?
The Vmax was 0.27 µmol/min/mg.

And the kcat [5]?
The kcat was 0.39 s⁻¹.

What about the kcat/Km [5] of the same protein?
The kcat/Km was 600 M⁻¹ s⁻¹.

What about the Km [6] of the same protein?
Its Km is 430 ± 110 µM.

What about the Vmax [6] of the same protein?
The Vmax was 0.577 µmol/min/mg.

What about the kcat [6] of the same protein?
Its kcat is 0.83 s⁻¹.

What about the kcat/Km [6] of the same protein?
Its kcat/Km is 1930 M⁻¹ s⁻¹.

B2: Mouse SSAO/VAP-1 (Mus musculus) (protein)
chain: MTQKTTLVLLALAVITIFALVCVLLAGRSGDGGGLSQPLHCPSVLPSVQPRTHPSQSQPFADLSPEELTAVMSFLTKHLGPGLVDAAQARPSDNCVFSVELQLPAKAAALAHLDRGGPPPVREALAIIFFGGQPKPNVSELVVGPLPHPSYMRDVTVERHGGPLPYYRRPVLDREYQDIEEMIFHRELPQASGLLHHCCFYKHQGQNLLTMTTAPRGLQSGDRATWFGLYYNLSGAGFYPHPIGLELLIDHKALDPALWTIQKVFYQGRYYESLTQLEDQFEAGLVNVVLVPNNGTGGSWSLKSSVPPGPAPPLQFHPQGPRFSVQGSQVSSSLWAFSFGLGAFSGPRIFDIRFQGERVAYEISVQEAIALYGGNSPASMSTCYVDGSFGIGKYSTPLIRGVDCPYLATYVDWHFLLESQAPKTLRDAFCVFEQNQGLPLRRHHSDFYSHYFGGVVGTVLVVRSVSTLLNYDYIWDMVFHPNGAIEVKFHATGYISSAFFFGAGEKFGNRVGAHTLGTVHTHSAHFKVDLDVAGLKNWAWAEDMAFVPTIVPWQPEYQMQRLQVTRKLLETEEEAAFPLGGATPRYLYLASNHSNKWGHRRGYRIQILSFAGKPLPQESPIEKAFTWGRYHLAVTQRKEEEPSSSSIFNQNDPWTPTVNFTDFISNETIAGEDLVAWVTAGFLHIPHAEDIPNTVTAGNSVGFFLRPYNFFDEDPSFHSADSIYFREGQDATACEVNPLACLSQTATCAPEIPAFSHGGFAYRDN
Which results are given for B2?
Km [7]: 10 ± 1.2 µM; kcat/Km [7]: 1670 M⁻¹ s⁻¹; Km [8]: 4.8 ± 13 µM; kcat/Km [8]: 3040 M⁻¹ s⁻¹; Km [9]: 31 ± 10 µM; kcat/Km [9]: 488 M⁻¹ s⁻¹; Km [10]: 27.5 ± 9.9 µM; kcat/Km [10]: 3780 M⁻¹ s⁻¹; Km [11]: 29.1 ± 4.8 µM; kcat/Km [11]: 1490 M⁻¹ s⁻¹; Km [12]: 8.8 ± 2.9 µM; kcat/Km [12]: 3910 M⁻¹ s⁻¹

Reference: US20070066682A1, “Arylalkylamine vanadium (V) salts for the treatment and/or prevention of Diabetes mellitus” (priority 2005, published 2007)
